Publication PMC8113581 (2021)

Target: SARS-CoV-2 RBD (WT) (SARS-CoV-2, UniProt P0DTC2)
Test: SPR

B1: P4A1 (antibody, V domains shown)
VH: EVQLVESGGGLIQPGGSLRLSCAASGFIVSSNYMSWVRQAPGKGLEWVSIIYSGGSTFYADSVKGRFTISRDNSKNTLYLQMNSLRVEDTAVYYCARDLQELGSLDYWGQGTLVTVSS
VL: DIQMTQSPSSVSASVGDRVTITCRASQGISSWLAWYQQKPGKAPKLLIYAASSLQSGVPSRFSGSGSGTDFTLTISSLQPEDFATYYCQEANSFPYTFGQGTKLEIK
Q: How did the Kd turn out when B1 was run?
A: 0.102 nM
